Measured values from paper PMC6480920, “A Combined ELONA-(RT)qPCR Approach for Characterizing DNA and RNA Aptamers Selected against PCBP-2”.

Experiments:
[1] = biological target: T1, PCBP-2 (poly(C)-binding protein 2) (UniProt Q15366 1-365); experiment: ELONA-qPCR; 6 mM Mg2+; ELONA: 100 mM HEPES pH 7.4, 100 mM NaCl, 6 mM MgCl2, 37 °C, 60 min, PCBP-2 (10 pmol) immobilized on Cu2+ plates; EMSA: 40 mM Tris-HCl pH 7.5, 250 mM NaCl, 0.1%; settings: protein: recombinant; tags: N-terminal 6xHis
[2] = biological target: T1, PCBP-2 (poly(C)-binding protein 2); experiment: ELONA-RTqPCR; 6 mM Mg2+; ELONA: 100 mM HEPES pH 7.4, 100 mM NaCl, 6 mM MgCl2, 37 °C, 60 min, PCBP-2 (10 pmol) immobilized on Cu2+ plates; EMSA: 40 mM Tris-HCl pH 7.5, 250 mM NaCl, 0.1%; settings: protein: recombinant; tags: N-terminal 6xHis
[3] = biological target: T1, PCBP-2 (poly(C)-binding protein 2); experiment: ELONA-RTqPCR; Kd in range 24.1-276.5 nM, value in figure; ELONA: 100 mM HEPES pH 7.4, 100 mM NaCl, 6 mM MgCl2, 37 °C, 60 min, PCBP-2 (10 pmol) immobilized on Cu2+ plates; EMSA: 40 mM Tris-HCl pH 7.5, 250 mM NaCl, 0.1%; settings: protein: recombinant; tags: N-terminal 6xHis
[4] = biological target: T1, PCBP-2 (poly(C)-binding protein 2); experiment: ELONA-RTqPCR; Kd in range 24.1-276.5 nM, value in figure; highest RNA Bmax; ELONA: 100 mM HEPES pH 7.4, 100 mM NaCl, 6 mM MgCl2, 37 °C, 60 min, PCBP-2 (10 pmol) immobilized on Cu2+ plates; EMSA: 40 mM Tris-HCl pH 7.5, 250 mM NaCl, 0.1%; settings: protein: recombinant; tags: N-terminal 6xHis
[5] = biological target: T1, PCBP-2 (poly(C)-binding protein 2); experiment: ELONA-qPCR; Kd in range 8.4-89.9 nM, value in figure; ELONA: 100 mM HEPES pH 7.4, 100 mM NaCl, 6 mM MgCl2, 37 °C, 60 min, PCBP-2 (10 pmol) immobilized on Cu2+ plates; EMSA: 40 mM Tris-HCl pH 7.5, 250 mM NaCl, 0.1%; settings: protein: recombinant; tags: N-terminal 6xHis
[6] = biological target: T1, PCBP-2 (poly(C)-binding protein 2); experiment: EMSA; 0.1-27.1 nM protein; two retarded complexes; ELONA: 100 mM HEPES pH 7.4, 100 mM NaCl, 6 mM MgCl2, 37 °C, 60 min, PCBP-2 (10 pmol) immobilized on Cu2+ plates; EMSA: 40 mM Tris-HCl pH 7.5, 250 mM NaCl, 0.1%; settings: protein: recombinant; tags: N-terminal 6xHis; label: 32P-CTP uniform
[7] = biological target: T1, PCBP-2 (poly(C)-binding protein 2); experiment: ELONA-qPCR; Kd in range 8.4-89.9 nM, value in figure; highest DNA Bmax; ELONA: 100 mM HEPES pH 7.4, 100 mM NaCl, 6 mM MgCl2, 37 °C, 60 min, PCBP-2 (10 pmol) immobilized on Cu2+ plates; EMSA: 40 mM Tris-HCl pH 7.5, 250 mM NaCl, 0.1%; settings: protein: recombinant; tags: N-terminal 6xHis

T1 sequence (Q15366 whole entry): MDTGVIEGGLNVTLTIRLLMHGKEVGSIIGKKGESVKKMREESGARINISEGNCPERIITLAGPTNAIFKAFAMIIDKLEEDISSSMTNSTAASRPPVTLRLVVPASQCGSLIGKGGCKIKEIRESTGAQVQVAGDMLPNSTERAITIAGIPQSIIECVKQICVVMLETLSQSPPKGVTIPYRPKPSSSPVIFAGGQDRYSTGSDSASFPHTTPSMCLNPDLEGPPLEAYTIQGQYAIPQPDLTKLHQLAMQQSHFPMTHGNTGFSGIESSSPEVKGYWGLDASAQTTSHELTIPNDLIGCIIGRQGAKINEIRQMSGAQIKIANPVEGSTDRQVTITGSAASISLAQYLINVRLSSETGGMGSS

B1: 05DS10-21 (ssDNA)
DNA: GCGGATCCAGACTGGTGTGGAGGTTAGCCGAAACACGTATACGCGTATTTATCCTCGGGCCCTAAAGACAAGCTTC
Kd [1]: 8.4 nM

B2: 05RS10-09 (ssRNA)
RNA: GGGGCGGAUCCAGACUGGUGUACACGGUGUUUAGUAGUUUAAUGAAUCUUUUAGUUCUUGGGCCCUAAAGACAAGCUUC
Kd [2]: 24.1 nM

B3: 05RS10-04 (ssRNA)
RNA: GGGGCGGAUCCAGACUGGUGUCAUUUAGCAAAAACACUUGUAUAAUUCAAGUCGAUGUUGGGCCCUAAAGACAAGCUUC
binding result [3]: binds

B4: 05RS10-11 (ssRNA)
RNA: GGGGCGGAUCCAGACUGGUGUGAUCAUAUUAAUAAGACGCUUCCAGGUACGUCGCUGUUGGGCCCUAAAGACAAGCUUC
binding result [3]: binds

B5: 05RS10-18 (ssRNA)
RNA: GGGGCGGAUCCAGACUGGUGUUUAAUUAUGUAAGUAAAUUGUUUUUUGACUCUCGCAUUGGGCCCUAAAGACAAGCUUC
binding result [3]: binds

B6: 05RS10-19 (ssRNA)
RNA: GGGGCGGAUCCAGACUGGUGUAAUCGAUCUUGCAUGCUAUUCGUCAAUCAACUCUUGCCGGCCCUAAAGACAAGCUUC
binding result [3]: binds

B7: 05RS10-30 (ssRNA)
RNA: GGGGCGGAUCCAGACUGGUGUUUCCGCAAAGAGUGGUCUUUGUUAAUGUCAGGUUUCUUCGGCCCUAAAGACAAGCUUC
binding result [3]: binds

B8: 05RS10-32 (ssRNA)
RNA: GGGGCGGAUCCAGACUGGUGUCUUCCUGCUUGUGUUAUUUUCUAUUGUCGUGCGUGUUCGGGCCCUAAAGACAAGCUUC
binding result [4]: binds

B9: 05RS10-34 (ssRNA)
RNA: GGGGCGGAUCCAGACUGGUGUGAACACAGACGAGAACGUUGCAUAAAACCGCUUUUUUGGGCCCUAAAGACAAGCUUC
binding result [3]: binds

B10: 05DS10-01 (ssDNA)
DNA: GCGGATCCAGACTGGTGTGCACAGCACATGCATTACTGCGGTAATCCGTGTCCTTTGTGCCCTAAAGACAAGCTTC
binding result [5]: binds

B11: 05RS10-32-32P (ssRNA)
RNA: B8 RNA
binding result [6]: binds

B12: 05DS10-02 (= 05DS10-03) (ssDNA)
DNA: GCGGATCCAGACTGGTGTACTGGGCTAGTTGCCTCTGCAGATTAGATGATGACAGTGGCCCTAAAGACAAGCTTC
binding result [5]: binds

B13: 05DS10-05 (ssDNA)
DNA: GCGGATCCAGACTGGTGTACCTGTTAGCAAGAGTTTATTATGTAAAGATATCCGTTGGGCCCTAAAGACAAGCTTC
binding result [7]: binds

B14: 05DS10-12 (ssDNA)
DNA: GCGGATCCAGACTGGTGTGCAGGTATGCCGGATCATGTCGTGAAAGTATCCATTTCTCGCCCTAAAGACAAGCTTC
binding result [5]: binds

B15: 05DS10-18 (ssDNA)
DNA: GCGGATCCAGACTGGTGTCCTATCTATAATTTTGCAGTCCACGTTTCTCTTGTGTGTGCCCTAAAGACAAGCTTC
binding result [5]: binds

B16: 05DS10-22 (ssDNA)
DNA: GCGGATCCAGACTGGTGTCAATGGTACTCTTCATTGTAGTCGCTTTGTTTATTAGCCGGCCCTAAAGACAAGCTTC
binding result [5]: binds

B17: 05DS10-26 (ssDNA)
DNA: GCGGATCCAGACTGGTGTGGGAATGTTGTTTATGTATTTGTTCTGAGCTCTACCTTTGCCCTAAAGACAAGCTTC
binding result [5]: binds
